Measurements: the nanobody polyreactivity screen of Harvey et al. (2022)

Assay: yeast display, Sf9 membrane polyspecificity reagent, FACS + sequencing; frameworks hold sequencing errors
Outline: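 After 36–48 hours of galactose induction, yeast (Saccharomyces cerevisiae BJ5465) displaying a synthetic nanobody library were stained at 4 °C for 1 hour with 10% biotinylated, detergent-solubilized Sf9 membrane reagent. Streptavidin microbeads enriched the stained cells before FACS sorting into low and high (top ~1%) gates on anti-HA and streptavidin fluorescence. Each clone's polyreactivity label reflects its gate of origin.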

QVQLVESGGGLDQAGGSLRLSCAASGRIFYPYTMGWYRQAPGKERELVAAISSTGRTNYADSVKGRFTISRDNAKNTVYLQMNSLKPEDTAVYYCAKRYRKYSLGPPGNDYWGQGTQVTVSS
polyreactivity (PSR sort gate): high polyreactivity

QVQLVESGGGLVQAGGSLRLSCAASGGNFESNAMGWYRQAHGKERELVAAISWSGGTTYYADSVKGRFTISRDNAKNTDFLQMNSLKPEDTAVYYCAKVPFSYRSFGYWGQGTQVTVSS
polyreactivity (PSR sort gate): low polyreactivity

QVQLVESGGGLVQAGGSLRLSCAASGSIFDSYTMGWYRQAPGKERELVATINRSGGSTYYADSVKGRFTISRDNAKNTVYLQMNSLKPEDTAVYYCANVYPYTPYSSWRSKYDYWGQGTQVTVSS
polyreactivity (PSR sort gate): low polyreactivity

QVQLVESGGGLVQAGGSLRLSCAASGSIFAYYAMGWYRQAPGKEREFVARITYSTDGTYYADSVKGRFTISRDNAKNTVYLQMNSLKPEDTAVYYCAVDTWWGFKRYKFDYWGQGTQVTVSS
polyreactivity (PSR sort gate): low polyreactivity

QVQLVESGGGLVQAGGSLRLSFAASGSIFTPNVMGWYRPAPGKERELVAAISQSGGSTFYADSVKGRFTISRDNAKNTVYLQMNSLKPEDTAVYFCATEYYGPVYDLDYDYWGQGTQVTVSS
polyreactivity (PSR sort gate): low polyreactivity

QVQLVESGGGIVQAGGSLRLSSAASGFIFARYAMGWYRQAPGKERELVAAISSGGRTYYADSVKGRFTISRDNAKNTVYLQMNSLKPEDTAVYYCAADPASSYGKYSYYYWGQGTQVTVSS
polyreactivity (PSR sort gate): high polyreactivity

QVQLVESGGGLVQAGGSLRLSCAASGSIFTYTMGGYRQAPGKERELVATISRTGSTNYADSVKGRFTISRDNAKNTVYLQMNSLKPEDTAVYYCSKGAYITGAWPFYELITPYAYWGQGTQVTVSS
polyreactivity (PSR sort gate): high polyreactivity

QVQLVESGGGLVQAGGSLRLSCAASGRTFDRYAMGWYRQAPGKEREFVAVISSSGVRTNYADSVKGRFTISRDNAKNTVYFQMNSLKPEDTAVYYCAAVFWFRSLSGYIYDYWGQGTQVTVST
polyreactivity (PSR sort gate): low polyreactivity

QVQLVESGGGLVQAGGSLRLSCAASGRNFKYYTMGWYRQAPGKETELVAAISSGGRTKYADSVKGRFTISRDNAKNTVYLQMNSLKPEDTAVYYCNAGYPYPFYRSSQTGGYDYWGQGTQVTVSS
polyreactivity (PSR sort gate): high polyreactivity

QVQLVESGGGLVQAGGSLRLSCAGSGFTLGSNAMGWYRQAPGKERELVAVISGSGGSTYYADSVKGRFTISRDNAKNTVYLQMNSLKPEDTAVYYCAAQYSAGQYYGYGYWGQGTQVTVSS
polyreactivity (PSR sort gate): high polyreactivity

QVQLVESGGGLVQAGGSLRLSCDASGSTFYPNAMGWYRQAPWKERELVAAITTSGGSTYYADSVKGRFTISRDNAKNTVYLQMNSLKPEDTAVYYCAAEVRDRGLEPYGPIYDYWGQGTQVTVSS
polyreactivity (PSR sort gate): high polyreactivity

QVQLVESGGGLDQAGGSLRLSCPASGSTFLNNAMGRYRQAPGKERELVATITSGGITNYADSVKGRFTISRDNAKNCVYLQMNSLKPEDTAVYYCNADTWGFTYYYWGQGTQVTVSS
polyreactivity (PSR sort gate): low polyreactivity

QVQLVESGGGLVQAGGSLRLSCAASGFTFKLYAMGWYRQAPGNEREWVAAIRRGGTTNYADSVKGRFTISRDTAKNTVYLQMNSLKPEDTAVYYCAADGWYPGVYYPYTEFDYWGQGTQVTVSS
polyreactivity (PSR sort gate): high polyreactivity

QVQLVESGGGLVQAGGSLRLSCAASGFTFWPNAMGWYRQAPGKERELVAAINWSGGSTYYADSVKGRFTISRDNAKNTVFLQLNSLKPEDTAVYYCAAVSYDWYVGYEFWGQGTQVTVSS
polyreactivity (PSR sort gate): low polyreactivity

QVQLVESGGGLVQAGGSLRLSCAASGSIFYRNGMGWYRQAPGKERELVAAISGRGGSTNYADSVKGRFTISRDNAKNTVYLQMNSLKPEDTAVYYCNRYGVSNILVRGGYWGQGTQVTVSS
polyreactivity (PSR sort gate): high polyreactivity

QVQLVESGGGLVQAGGSLRLSCAASGSIFSSYAMGWYRQAPGKERELVAAITRTGGRTYYADSVKGRFTISRDNAKNTVYLQMNSLKPEDTAVYYCAAKQVSRGVAAYDYWGQGTQVTVSS
polyreactivity (PSR sort gate): high polyreactivity

QVQLVESGGGIVQAGGSLRLSSAASGFTFYKYVMGWYRQSPGKERELVAAISYSSGSTYYADSVKGRFTISRDNAKNTVYLKMNSLKPDDTAVYYCAADSTYYGYAYYYWGQGSQVTVSS
polyreactivity (PSR sort gate): high polyreactivity

QVQLVESGGGLVQAGVSLRLSCAASGNTFRINTKLCYRQAPGKERDLVATITRRGGSTYYADSVKGRFTISRDNAMNTVYLQMNSLNPEDSAVYYCAARVRGTGVYGGYNYWGQGTQVTVSS
polyreactivity (PSR sort gate): high polyreactivity

QVHLVESGGGLVQAGGSLRLSCAASGRTFRIYAMGWYRPAPGKERELVAAISRSSTSTYYADSVKGRFTISRDNAKNTVYLQMNSLKPEDTAVYYCAAVVTVQYSQPYDHWGQGTQVTVSS
polyreactivity (PSR sort gate): high polyreactivity

QVQLVESGGGLVQAGGSLRLSCAASGSTFYNYAMGWYRPAPGNERELVAAIDTGGSTNYADSVKGRFTISRDNAKNTVYFQMNSLKPEVTALDYCNTVYLYGTHDYWGQGTQVTVSS
polyreactivity (PSR sort gate): low polyreactivity

QVQLVESGGGLVQAGGSLRLSCAASGYIFDRNSMGWYRQAPGKERELVAAITKRGGITYYADSVKGRFTISRDNAKNTVYLQMNSLKPEDTAVYYCNALARSSRYDYWGQGTQVTVSS
polyreactivity (PSR sort gate): high polyreactivity

QVQLVESGGGLFQAGGSLRLICAASGRTYYAYARGWYRQAPGKERELVAAITSGGSTYYADSVKGRFTISRDNAKNTVYLQMNSLKPEDTAVYYCNAGYYQWPFSGYDYWGQGTQVTVSS
polyreactivity (PSR sort gate): low polyreactivity

QVQLVESGGGLVQAGGSLRLSCAASGFIITQSAMGWYRQAPGTERELVAAISGNGGRTYYADSVKGRFTISRDNAKNTVYLQMNSLKPEDTAVYYCAVTRPGRRYPFCYDYWGQGTQVTVSS
polyreactivity (PSR sort gate): low polyreactivity

QVQLVESGGGLVQAGGSLRLSCAASGFTFFWYAMGWSRQAPGKERELVAGITYRGGSTYYADSVKGRFTISRDNAKNTVYLQMNSLKPEDTAVYYCNADVVTKHISAWWDRYYRRYYYWGQGTQVTVSS
polyreactivity (PSR sort gate): low polyreactivity

QVQLVESGGGLVQAGGSLRLSCAASGSIISYYAMGWYRQAPGKERELVAAITASGGSTYYADSVKGRFTISRDNAKNTVYLQMNSLKPEDTAVYYCAAGTHTDYGRYYYWGQGTQVTVSS
polyreactivity (PSR sort gate): low polyreactivity

QVHLVESGGGLVQAGGSLRLSCAASGSISGLYAMGWYRQAPGKETELVAAISFSAGSTYYADSVKGRFTISRDNAKNTVYFQMNSLKPEDTAVYYCAADGQYGGVPNTSEWTFDYWGQGTQVTVSS
polyreactivity (PSR sort gate): low polyreactivity

QVQLVESGGGLVQAGGSLRLSCAASGSTFIGYAMGWYRKAPGKERELVAAITGGGRTNYADSVKGRFTISRDNAKNTVYLQMNSLKPEDTAVYYCAARGVTRGYAKPYYSRGDYWGQGTQVTVSS
polyreactivity (PSR sort gate): low polyreactivity

QVQLVESGGGLVQAGGSHRLSCAASGSILEIYAMGWYRQAPGKEREFVASISWDVSSTYYADSVKGRFTISRDNAKNTVYLQMYSLKPEDPAVYYCATSLVWGLYDWYYDLSAAFDYWGQGTQVTVSS
polyreactivity (PSR sort gate): low polyreactivity

QVQLEETVGGLVQAGGSLRLSSAATGLTFYLYVMGWYSQAHGKERELVAAISRRGGTTYYADSVKGRVTISRDKAKNTVYLQLNCLKPDDTAVYDCAADFFARTQRTFDYWGLGTQVTVSS
polyreactivity (PSR sort gate): high polyreactivity

QVQLVESGGGLVQAGGSLRLSSDASGRIFYVYTMGWYRQAPGKEREFVAAISDSGGSTYYADSVKGRFTISRDNAKNTVYLQMNSLQTEDTAVYYCNAGYGPAAYYWYYGGYYYWGQGTQVTVSS
polyreactivity (PSR sort gate): low polyreactivity

QVQLVESGGGLVQAGGSLRLSCAASGSTFRYYAMGWYRQAPGKERELVAAITWSGGRTTYADSVKGRFTISRDNAKNTVYLQMNSLKPEDTAVYYCAAEWHYFVTMYYWGQGTQVTVSS
polyreactivity (PSR sort gate): low polyreactivity

QVQLVESGGGLVQAGGSLRLSCAASGIILPVYAMGWYRQAPGKERELVAAIRWSSGRTYYADSVKGRFTISRDNAKNTVYLQMNSLKPEDTAVYYCNAALYHDSEYNYWGQGTQVTVSS
polyreactivity (PSR sort gate): high polyreactivity

QVQLVESGGGLVQAGGSLRLSCAASGSTFRYNAMGWYRQEPGKERELVAAISSSGGSTRYADSVKGRFTISRDNAKNTVYLQMNSLKPEDTAVYHCAVRFYDWRYYYWGQGTQVTVSS
polyreactivity (PSR sort gate): high polyreactivity

QVQLVESGGGLVQAGGSLRLSSAASGRTFRYYAMGWYRQAPGKERELVASISDGGSTNYADSVKGRFTISRDNAKNTVYLQMNSLKPEDTAVYYCAADGWWQYDYWGQGTQVTVSS
polyreactivity (PSR sort gate): low polyreactivity

QVQLVESGGGLDQAGGSLRLSCAASGSIFVPYAMGGYRQAPGKERELVAAITSGDSTYYADSVKGRFTISRDNAKNNVYLQMNSLKPEDTAVYYCAADIRPTLSLLSLFDYEYWGQGTQVTVSS
polyreactivity (PSR sort gate): low polyreactivity

QVQLVESGGGLVQAGGSLRLSCASSGFTLVGYAMGWYRQAPGKERELVAAISYRGGSTYYADSVKGRFTISRDNAKNTVYLQMNSLKPEDNAVYYCAATYQGSSRSRGYWGQGTQVTVSS
polyreactivity (PSR sort gate): high polyreactivity

QGQLVESGGGLVQAGGILRLRCAACGSTILVYAMGWYRHAPGQERELVAFIDNGGDTYYADSVKGRFTISRDNAKNTVYLQMYSLKPEDTEVYYCADDLSYLGYWEYDYWGQGTQVTVSS
polyreactivity (PSR sort gate): low polyreactivity

QVHLVESGGGLVQAGGSHRITCAASGITFVGNARGWYRQAPGKERELVAAIRWSSGRTYYADSVKGRFTISRDNAKNTVYLQMNSLKPEDTAVYYCATDYHYSQYYRFYYWGQGTQVTVSS
polyreactivity (PSR sort gate): high polyreactivity

QVQLVESGGGLVPAGGSLRLSCAASGYIFDYNAMGWYRQAPGKERELVAAITFRDGSTYADSVKGRFTISRDNAKNTVYLQMNSLKPEDTAVYYCNRRSQVHSHSKHDYWGQGTQVTVSS
polyreactivity (PSR sort gate): low polyreactivity

QVQLVESGGGLVQAGGSLRLSCAASGGTFARNTMGWYRQAPGKERELVAAITRGGSSTYYADSVKGRFTISRDNAKNTVYLQMNSLKPEDTAVYYCNKSLRWRYPYYGTTGRYDYWGQGTQVTVSS
polyreactivity (PSR sort gate): high polyreactivity

QVQLVESGGGLVQAGGSLRLTCAASGGILGYYAMGWYRQEQGKERELVAAISSSVGRTYYADSVKGRFTISRDNAKNSVFLQMNSLKPEDTAVYYCNKDIGRSYNYWGQGTQVTVSS
polyreactivity (PSR sort gate): high polyreactivity

QVQLVESGGGLVQAGGSLRLSCAASGSTFFWYAMGRYRQAPGKERELVAAISKTGGSTYYADSVKGRFTISRDNAKNTFYLQMNSLKPEDTAVYYCNAVPYASKAARSFDYWGQGTQVTVSS
polyreactivity (PSR sort gate): low polyreactivity

QVQLVESGGGLVQAGGSLRLSCAASGRIFSRYVMGWYRQAPGKERELVAAITSSGGRTYYADSVKGRFTISRDNAKNTVYLQMNSLNPEDTAVYYCNNAPWWRTSSDYEYWGQGTQVTVSS
polyreactivity (PSR sort gate): high polyreactivity
